Positions count from the first letter of the chain named. In names and notes the source's numbering stands.
B1: N-terminally V5-tagged hTEAD4 Asp272Ala (natural protein, human, UniProt Q15561 1-434, looked up)
chain: MEGTAGTITSNEWSSPTSPEGSTASGGSQALDKPIDNDAEGVWSPDIEQSFQEALAIYPPCGRRKIILSDEGKMYGRNELIARYIKLRTGKTRTRKQVSSHIQVLARRKAREIQAKLKDQAAKDKALQSMAAMSSAQIISATAFHSSMALARGPGRPAVSGFWQGALPGQAGTSHDVKPFSQQTYAVQPPLPLPGFESPAGPAPSPSAPPAPPWQGRSVASSKLWMLEFSAFLEQQQDPDTYNKHLFVHIGQSSPSYSDPYLEAVDIRQIYAKFPEKKGGLKDLFERGPSNAFFLVKFWADLNTNIEDEGSSFYGVSSQYESPENMIITCSTKVCSFGKQVVEKVETEYARYENGHYSYRIHRSPLCEYMINFIHKLKHLPEKYMMNSVLENFTILQVVTNRDTQETLLCIAYVFEVSASEHGAQHHIYRLVKE
B2: wt hYAP^50-171 (domain or fragment, human, UniProt P46937-1 50-171, looked up)
chain: AGHQIVHVRGDSETDLEALFNAVMNPKTANVPQTVPMRLRKLPDSFFKPPEPKSHSRQASTDAGTAGALTPQHVRAHSSPASLQLGAVSPGTLTPTGVVSGPAATPTAQHLRQSSFEIPDDV
notes: YAP (Yes-associated protein), human, residues 50-171 of NM_001130145.2; also called hYAP wt; Wild type; source: E. coli NiCo21 (DE3), purified (HisTrap, tag cleaved by HRV 3C protease, Resource S, Superdex 75); not shown: His6, N-terminal, cleaved
B3: hYAP^50-171 Phe95Ala (domain or fragment, human, UniProt P46937-1 50-171, looked up)
chain: B2 chain with F46A
notes: YAP (Yes-associated protein), human, residues 50-171 of NM_001130145.2; also called hYAP Phe95Ala; source: E. coli NiCo21 (DE3), purified (HisTrap, tag cleaved by HRV 3C protease, Resource S, Superdex 75); not shown: His6, N-terminal, cleaved
B4: hYAP^50-171 Leu91Ala (domain or fragment, human, UniProt P46937-1 50-171, looked up)
chain: B2 chain with L42A
notes: YAP (Yes-associated protein), human, residues 50-171 of NM_001130145.2; also called hYAP Leu91Ala; source: E. coli NiCo21 (DE3), purified (HisTrap, tag cleaved by HRV 3C protease, Resource S, Superdex 75); not shown: His6, N-terminal, cleaved
B5: hYAP^50-171 Arg89Ala (domain or fragment, human, UniProt P46937-1 50-171, looked up)
chain: B2 chain with R40A
notes: YAP (Yes-associated protein), human, residues 50-171 of NM_001130145.2; also called hYAP Arg89Ala; R89A; source: E. coli NiCo21 (DE3), purified (HisTrap, tag cleaved by HRV 3C protease, Resource S, Superdex 75); not shown: His6, N-terminal, cleaved
B6: hYAP^50-171 Met86Ala (domain or fragment, human, UniProt P46937-1 50-171, looked up)
chain: B2 chain with M37A
notes: YAP (Yes-associated protein), human, residues 50-171 of NM_001130145.2; also called hYAP Met86Ala; source: E. coli NiCo21 (DE3), purified (HisTrap, tag cleaved by HRV 3C protease, Resource S, Superdex 75); not shown: His6, N-terminal, cleaved
B7: hYAP^50-171 Ser94Ala (domain or fragment, human, UniProt P46937-1 50-171, looked up)
chain: B2 chain with S45A
notes: YAP (Yes-associated protein), human, residues 50-171 of NM_001130145.2; also called hYAP Ser94Ala; source: E. coli NiCo21 (DE3), purified (HisTrap, tag cleaved by HRV 3C protease, Resource S, Superdex 75); not shown: His6, N-terminal, cleaved
B8: hYAP^50-171 Leu65Ala (domain or fragment, human, UniProt P46937-1 50-171, looked up)
chain: B2 chain with L16A
notes: YAP (Yes-associated protein), human, residues 50-171 of NM_001130145.2; also called hYAP Leu65Ala; source: E. coli NiCo21 (DE3), purified (HisTrap, tag cleaved by HRV 3C protease, Resource S, Superdex 75); not shown: His6, N-terminal, cleaved
B9: hYAP^50-171 Phe96Ala (domain or fragment, human, UniProt P46937-1 50-171, looked up)
chain: B2 chain with F47A
notes: YAP (Yes-associated protein), human, residues 50-171 of NM_001130145.2; also called hYAP Phe96Ala; source: E. coli NiCo21 (DE3), purified (HisTrap, tag cleaved by HRV 3C protease, Resource S, Superdex 75); not shown: His6, N-terminal, cleaved
B10: hYAP^50-171 Phe69Ala (domain or fragment, human, UniProt P46937-1 50-171, looked up)
chain: B2 chain with F20A
notes: YAP (Yes-associated protein), human, residues 50-171 of NM_001130145.2; also called hYAP Phe69Ala; source: E. coli NiCo21 (DE3), purified (HisTrap, tag cleaved by HRV 3C protease, Resource S, Superdex 75); not shown: His6, N-terminal, cleaved
B11: hYAP^50-171 Leu68Ala (domain or fragment, human, UniProt P46937-1 50-171, looked up)
chain: B2 chain with L19A
notes: YAP (Yes-associated protein), human, residues 50-171 of NM_001130145.2; also called hYAP Leu68Ala; source: E. coli NiCo21 (DE3), purified (HisTrap, tag cleaved by HRV 3C protease, Resource S, Superdex 75); not shown: His6, N-terminal, cleaved

These binders were tested against wt hYAP (full length) (human, UniProt P46937 1-504) (assay: cell-based or functional assay). Details: not given.
Sequence of wt hYAP (full length) (P46937 whole entry): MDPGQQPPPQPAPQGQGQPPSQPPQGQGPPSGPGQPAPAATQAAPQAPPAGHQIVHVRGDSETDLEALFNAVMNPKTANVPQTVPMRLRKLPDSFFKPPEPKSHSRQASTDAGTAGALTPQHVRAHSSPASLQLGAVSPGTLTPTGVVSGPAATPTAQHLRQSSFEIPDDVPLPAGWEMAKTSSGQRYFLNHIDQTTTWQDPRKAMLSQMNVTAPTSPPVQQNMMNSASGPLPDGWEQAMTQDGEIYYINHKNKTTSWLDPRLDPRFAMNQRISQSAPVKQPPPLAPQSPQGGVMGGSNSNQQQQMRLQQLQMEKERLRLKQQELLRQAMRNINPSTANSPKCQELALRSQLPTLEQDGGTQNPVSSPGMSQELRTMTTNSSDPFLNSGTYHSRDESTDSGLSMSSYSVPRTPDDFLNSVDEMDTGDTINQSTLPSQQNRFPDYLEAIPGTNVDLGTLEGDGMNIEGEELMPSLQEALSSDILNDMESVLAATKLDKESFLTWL

MCAT_Luc reporter luciferase activity in HEK293::MCAT_Luc cells co-transfected with wt hYAP; against wt hTEAD4 [fold reduction] | Binder
~4 | B1

Each binder was assayed against T1, N-Avitagged wt hTEAD4^217-434 (human, UniProt Q15561 217-434, acylated at Cys367 (100%)) (assay: SPR; N-Avitagged hTEAD4^217-434 proteins immobilised on Series S Sensor Chip SA, YAP^50-171 proteins as analyte; Biacore T200; 25°C (298 K); 50 mM HEPES, 100 mM KCl, 0.25 mM TCEP, 1 mM EDTA, 0.05% Tween 20, 0.05% BSA, 2% DMSO, pH 7.4; Kd from equilibrium data (Kd^eq); upper limit for Kd^eq 200 µM). Details: both partners purified.
T1 construct: TEAD4 (TEA/ATTS domain transcription factor 4), human, residues 217-434; held on streptavidin (SA) chips; also called Wild type; source: purified; not shown: Avitag, N-terminal, kept
T1 sequence (Q15561 217-434): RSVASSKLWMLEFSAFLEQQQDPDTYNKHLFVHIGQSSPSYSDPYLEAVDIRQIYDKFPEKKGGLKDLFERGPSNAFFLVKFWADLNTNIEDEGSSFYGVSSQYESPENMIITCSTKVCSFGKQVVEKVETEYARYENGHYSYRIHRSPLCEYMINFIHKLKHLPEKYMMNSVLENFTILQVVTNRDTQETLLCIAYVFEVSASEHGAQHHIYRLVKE

Kd [µM] | Binder
0.018 | B2
26 | B3
30.6 | B4
27.4 | B5
2.08 | B6
5.62 | B7
0.794 | B8
4.75 | B9
6.45 | B10
0.464 | B11
